# Measured values from article PMC10611921, “Assessing the dynamics and macromolecular interactions of the intrinsically disordered protein YY1” (Bioscience Reports, 2023).
# B1: AAV P5 DNA (dsDNA)
# DNA 1: AGGGTCTCCATTTTGAAGCG
# DNA 2: CGCTTCAAAATGGAGACCCT
# Molecular target: YY1;FOXP2 FHD (human?;human?, UniProt P25490;O15409 1-414;504-594, |)
# Test: EMSA; FOXP2 FHD 2.5-10 uM added; large complex more intense and slightly shifted; simultaneous binding suggested; Anisotropy: 10 mM HEPES pH 7.5, 100 mM NaCl, 20 C; EMSA: 0.5 uM DNA, 20% (v/v) of binding buffer (10 mM HEPES pH 7.5, 1 mM MgCl2, 100 mM KCl, 10% glycerol, 0.1)
# Details: protein: recombinant;recombinant; tags: N-terminal His6;His6 removed with thrombin
# Chain of YY1;FOXP2 FHD (P25490 whole entry, chain 1 of 2): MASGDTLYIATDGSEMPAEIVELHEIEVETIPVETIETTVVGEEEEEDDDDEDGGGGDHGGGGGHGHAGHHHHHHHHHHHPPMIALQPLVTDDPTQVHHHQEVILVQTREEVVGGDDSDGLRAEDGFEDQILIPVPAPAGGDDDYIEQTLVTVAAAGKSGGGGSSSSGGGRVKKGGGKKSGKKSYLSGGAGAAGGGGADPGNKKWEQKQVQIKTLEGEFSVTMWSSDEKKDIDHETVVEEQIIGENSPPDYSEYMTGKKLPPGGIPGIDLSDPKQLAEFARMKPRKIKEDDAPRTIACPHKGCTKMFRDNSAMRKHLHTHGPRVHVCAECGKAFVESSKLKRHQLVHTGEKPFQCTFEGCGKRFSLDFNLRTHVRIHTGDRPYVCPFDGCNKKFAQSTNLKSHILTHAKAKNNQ
# Chain of YY1;FOXP2 FHD (O15409 504-594, chain 2 of 2): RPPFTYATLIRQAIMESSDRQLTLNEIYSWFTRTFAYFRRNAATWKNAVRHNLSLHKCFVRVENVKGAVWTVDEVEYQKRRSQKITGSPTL
binder,measurement,value
B1,binding result,binds
